Patent US7485710B2, “Nucleic acids coding for adhesion factor of group B streptococcus, adhesion factors of group B streptococcus and further uses thereof” (priority 2002, dated 2009)

Assays:
human fibrinogen [1] = target: T1, human fibrinogen (Homo sapiens, UniProt P02671+P02675+P02679); experiment: Spot membrane analysis of fibrinogen binding by synthetic peptides; settings: peptides derived from FbsA repeat GNVLERRQRDAENRSQ
T1 construct: purchased Sigma-Aldrich
Method: Fibrinogen binding was tested with peptides carrying the FbsA repeat motif ‘GNVLERRQRDAENRSQ’ (SEQ ID 113) and with peptides containing the scrambled sequence ‘GLSQNRDVRENQRARE’. (SEQ ID 205) Synthetic peptides, which differed from the repeat motif in that single amino acids had been replaced by alanine, were probed for fibrinogen binding. Beside the spot membrane, the sequence of each synthetic peptide is listed. Bold and underlined letters indicate amino acid substitutions within the repeat motif.
Synthetic peptides were tested for fibrinogen binding, in which each of the amino acids of the fibrinogen-binding repeat was replaced by each of the 20 amino acids. The vertical letters, printed in bold, represent the FbsA-derived fibrinogen binding sequence ‘GNVLERRQRDAENRSQ’ (SEQ ID NO: 113). The horizontal letters represent those amino acids that were introduced in the synthetic peptides instead of the original amino acid in the respective position.
In Western blot experiments proteins were separated by SDS-PAGE and electroblotted onto nitrocellulose. […] For spot membrane experiments peptides of 16 amino acids were synthesized and equal amounts of the peptides were directly spotted onto cellulose paper as described previously (Frank and Overwin, 1996). Blocking was performed in membrane blocking solution (MBS) that consisted of 20 ml casein based blocking buffer (Genosys Biotechnologies, Cambridge, England), 80 ml Tris-buffered saline (TBS), 0.05% tween 20, and 5 g sucrose. Probing for fibrinogen-binding was performed as described below.
Membranes that had been blocked overnight were incubated for 1 h with 2 μg/ml of human fibrinogen. For Western and colony blot experiments, fibrinogen and antibodies were diluted in PBS while for spot membrane analysis they were diluted in MBS. Following three washes with PBS, the membrane was incubated with anti-fibrinogen antibodies (1:1000 in PBS or MBS) for 1 h. This incubation was followed by three washes with PBS, containing 0.05% tween 20 (PBST) and two washes with PBS. Subsequently, the membrane was incubated for 1 h with peroxidase-labelled anti-rabbit IgG (1:1000 in PBS or MBS). After three washes with PBST and two washes with PBS, bound fibrinogen was detected by chemiluminescence using the ECL-kit (Amersham/Pharmacia). In control experiments, no cross-reactivity of the used antibodies with the immobilized proteins and peptides was detected.

GBS 6313 = experiment: Competitive inhibition of 125I-labelled fibrinogen binding to GBS; parameters: species or system Streptococcus agalactiae; settings: for inhibition of fibrinogen binding to GBS: 160 μM synthetic peptide, radiolabelled fibrinogen
Method: FbsA-9 differs from FbsA-19 in that it contains only 9 repeats in its repeat domain. The binding assay was performed with ^125I-labelled fibrinogen in the presence of different concentrations of each fusion protein. Each experiment was performed at least in triplicate.
Each experiment was performed at least in triplicate.
Purified human fibrinogen was radiolabelled with ^125I, using the chloramin T method (Hunter and Greenwood, 1962). Binding of labelled fibrinogen to GBS was performed essentially as described by Chhatwal et al. (Chhatwal, Muller, and Blobel, 1983). Briefly, overnight cultures of GBS were pelleted by centrifugation, washed twice with phosphate-buffered saline supplemented with 0.02% Tween 20 (PBST) and adjusted photometrically to a transmission of 10% at 600 nm. A total of 0.2 ml of the bacterial suspension was added to 20 μl of ^125I-labelled fibrinogen containing 23 ng of fibrinogen. After incubation for 1 h at room temperature, the streptococci were sedimented by centrifugation and washed with 1 ml of PBST. The radioactivity of the pellet was finally measured in a gamma counter (Packard Instruments). The amount of bacterial-bound fibrinogen was calculated as the percentage of total radiolabelled fibrinogen added to the bacteria. In inhibition experiments, the binding of 23 ng of radiolabelled fibrinogen to 0.2 ml of GBS (T=10%) was determined in the presence of various amounts of FbsA fusion proteins, Bsp fusion protein or synthetic peptides. Each experiment was repeated at least three times in triplicate.

A549 cells = experiment: Epithelial cell adherence and internalization assay of GBS 6313 in presence of proteins; assay type: cell-based, human; settings: fibrinogen 0.1 μg/ml to 1.0 μg/ml; fibronectin 10 μg/ml; data not shown
Method: The adherence of GBS 6313 to A549 cells (A) and its internalization into these cells (B) was arbitrarily set to 100% and the results obtained in the presence of the different fusion proteins was related to these values. Each experiment was performed at least three times in triplicate.
Adherence of GBS to epithelial cells and internalization into epithelial cells was assayed essentially as described previously (Caparon et al., 1991; Rubens et al. 1992). Briefly, A549 cells were transferred to 24-well tissue culture plates at approximately 4×10^5 cells per well and cultivated overnight in RPMI (Gibco BRL) tissue culture medium, supplemented with 10% of fetal calf serum. After replacement of the medium with 1 ml of fresh medium, the cells were infected with 5×10^6 streptococci per well and incubated at 37° C. for 2 h. The non-adherent bacteria were removed by washing three times with PBS. In adherence assays, the epithelial cells were subsequently detached from the well by the addition of trypsin/EDTA and lysed by adding 300 μl of distilled water. Adherent bacteria were quantitated by plating serial dilutions of the lysate onto THY agar plates. For internalization assays the epithelial cells were incubated after 2 h of infection for another 2 h in tissue culture medium supplemented with penicilling G (10 U) and streptomycin (0.01 mg) to kill extracellular bacteria. After three washes with PBS, the epithelial cells were detached by the addition of trypsin/EDTA and lysed in 300 μl of distilled water. The amount of intracellular bacteria was quantified by plating serial dilutions of the lysate onto THY agar plates. Each experiment was repeated at least three times in triplicate. […]
Adherence of S. agalactiae to A549 and HEL299 cells and internalization into these cells was assayed essentially as described in Example 1 for A549 cells. In some experiments, A549 cells were preincubated with different amounts of FbsA protein or FbsA-derived peptides in RPMI medium for 30 min with three subsequent washes with PBS.

human fibrinogen [2] = target: T1, human fibrinogen; experiment: Western blot of fusion proteins for fibrinogen binding; settings: His-tagged fusion proteins separated by SDS-PAGE, blotted, probed with human fibrinogen
Description: The fibrinogen binding activity of the three proteins encoded by different constructs are indicated below the schematic FbsA drawing.
The fusion proteins were size-separated by SDS-PAGE, transferred onto a nitrocellulose membrane and tested for fibrinogen binding by Western blotting. Bound fibrinogen was detected with rabbit anti-fibrinogen antibodies, followed by peroxidase-labelled goat anti-rabbit antibodies, and visualized by chemiluminescence. PabC and Gbs0851: full-length fusion proteins; PabC-N: N-terminal 388 amino acids of PabC; PabC-C: C-terminal 222 amino acids of PabC. (C) Identification of the FbsA and PabC-binding sites within human fibrinogen by Western blot analysis. […] Bound fusion proteins were detected with mouse anti-HisTag antibodies, followed by peroxidase-conjugated goat anti-mouse IgG fab fragments and visualized by chemiluminescence. […]
Membranes that had been blocked overnight were incubated for 1 h with 2 μg/ml of human fibrinogen. […] After three washes with PBST and two washes with PBS, bound fibrinogen was detected by chemiluminescence using the ECL-kit (Amersham/Pharmacia). In control experiments, no cross-reactivity of the used antibodies with the immobilized proteins and peptides was detected.

T1 sequence (P02675 31-491): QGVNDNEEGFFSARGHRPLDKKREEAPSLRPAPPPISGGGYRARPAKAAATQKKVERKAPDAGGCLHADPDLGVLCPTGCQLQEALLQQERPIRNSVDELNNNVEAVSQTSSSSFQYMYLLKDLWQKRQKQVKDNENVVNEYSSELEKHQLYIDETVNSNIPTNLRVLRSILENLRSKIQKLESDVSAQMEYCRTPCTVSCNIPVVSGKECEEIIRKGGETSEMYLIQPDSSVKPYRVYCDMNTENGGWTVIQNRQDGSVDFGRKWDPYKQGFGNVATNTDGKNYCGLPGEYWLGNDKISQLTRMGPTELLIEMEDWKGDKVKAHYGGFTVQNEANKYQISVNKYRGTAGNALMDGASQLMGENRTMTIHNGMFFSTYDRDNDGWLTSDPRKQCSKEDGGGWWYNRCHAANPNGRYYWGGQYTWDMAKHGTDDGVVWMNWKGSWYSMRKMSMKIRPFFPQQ
T1 sequence (P02679 27-433): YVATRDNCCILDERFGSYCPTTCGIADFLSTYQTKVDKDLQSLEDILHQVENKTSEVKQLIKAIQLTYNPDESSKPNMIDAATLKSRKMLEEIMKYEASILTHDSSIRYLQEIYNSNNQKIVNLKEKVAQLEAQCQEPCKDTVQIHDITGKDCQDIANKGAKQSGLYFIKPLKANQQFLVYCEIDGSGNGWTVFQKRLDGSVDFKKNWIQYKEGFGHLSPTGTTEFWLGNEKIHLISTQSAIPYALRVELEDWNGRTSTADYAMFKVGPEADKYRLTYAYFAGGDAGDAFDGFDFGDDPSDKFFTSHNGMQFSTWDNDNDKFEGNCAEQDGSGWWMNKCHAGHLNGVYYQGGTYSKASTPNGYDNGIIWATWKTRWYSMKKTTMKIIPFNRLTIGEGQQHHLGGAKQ
T1 sequence (P02671 20-629): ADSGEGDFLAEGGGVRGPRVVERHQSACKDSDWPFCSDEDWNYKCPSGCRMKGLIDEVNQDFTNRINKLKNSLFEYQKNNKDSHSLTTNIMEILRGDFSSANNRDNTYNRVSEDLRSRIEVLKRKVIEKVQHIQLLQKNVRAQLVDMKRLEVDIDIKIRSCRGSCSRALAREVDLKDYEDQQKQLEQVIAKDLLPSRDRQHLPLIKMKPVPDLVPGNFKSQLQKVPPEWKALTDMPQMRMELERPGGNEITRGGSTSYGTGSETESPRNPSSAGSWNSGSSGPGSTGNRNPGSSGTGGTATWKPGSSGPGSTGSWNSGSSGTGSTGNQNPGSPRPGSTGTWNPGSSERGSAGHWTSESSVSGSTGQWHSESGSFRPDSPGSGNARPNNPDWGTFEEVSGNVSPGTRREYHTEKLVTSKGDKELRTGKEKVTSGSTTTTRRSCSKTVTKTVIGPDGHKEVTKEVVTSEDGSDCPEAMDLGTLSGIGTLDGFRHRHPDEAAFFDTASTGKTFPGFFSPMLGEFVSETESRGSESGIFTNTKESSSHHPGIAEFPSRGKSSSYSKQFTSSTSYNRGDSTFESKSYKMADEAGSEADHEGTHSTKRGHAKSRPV

GLSQNRDVRENQRARE (listed as Streptococcus agalactiae) [randomised peptide, reference compound]
fibrinogen binding of synthetic 16-mer peptides on spot membrane (human fibrinogen [1]): no binding of fibrinogen

GNVLEARQRDAENRSQ [pep_R6A, synthetic FbsA repeat unit peptide carrying an R6A substitution]
fibrinogen binding of synthetic 16-mer peptides on spot membrane (human fibrinogen [1]): significantly reduced binding to fibrinogen | fibrinogen binding of synthetic 16-mer peptides on spot membrane (human fibrinogen [1]; listed as R6A): retained little binding activity | inhibition of fibrinogen binding to GBS (GBS 6313): 20%

GNVLERRQRDAENRSQ (listed as Streptococcus agalactiae) [pep_FbsA]
fibrinogen binding of synthetic 16-mer peptides on spot membrane (human fibrinogen [1]): strong interaction | inhibition of fibrinogen binding to GBS (GBS 6313): 80%

R^14K: FbsA repeat peptide with R14K substitution (GNVLERRQRDAENKSQ; listed as Streptococcus agalactiae)
fibrinogen binding of synthetic 16-mer peptides on spot membrane (human fibrinogen [1]): retained fibrinogen binding

fibronectin [reference compound]
bacterial adherence to A549 cells after pre-incubation of S. agalactiae 6313 with protein (A549 cells): did not exert an inhibitory effect | bacterial invasion of A549 cells after pre-incubation of S. agalactiae 6313 with protein (A549 cells): did not exert an inhibitory effect

B1: FbsA-N: fusion protein with the 19 N-terminal repeats of FbsA-19, truncated at its C-terminus (protein)
chain: MDSVGNQSQGNVLERRQRDAENRSQGNVLERRQRDVENKSQGNVLERRQRDAENKSQGNVLERRQRDAENRSQGNVLERRQRDAENRSQGNVLERRQRDAENRSQGNVLERRQRDAENRSQGNVLERRQRDAENRSQGNVLERRQRDVENKSQGNVLERRQRDAENKSQGNVLERRQRDAENRSQGNVLERRQRDAENRSQGNVLERRQRDAENRSQGNVLERRQRDAENRSQGNVLERRQRDAENRSQGNVLERRQRDAENRSQGNVLERRQRDAENRSQGNVLERRQRDAENRSQGNVLERRQRDAENKSQVGQLIG
modifications: left off: small tags and cut ends
notes: fusion protein with the 19 N-terminal repeats of FbsA-19, truncated at its C-terminus
fibrinogen binding in Western blot (human fibrinogen [2]): fibrinogen binding was observed

B2: FbsA-9: derivative of FbsA-19 fusion protein with only 9 repeats in its repeat domain (protein)
chain: MDSVGNQSQGNVLERRQRDAENRSQGNVLERRQRDVENKSQGNVLERRQRDAENKSQGNVLERRQRDAENRSQGNVLERRQRDAENRSQGNVLERRQRDAENRSQGNVLERRQRDAENRSQGNVLERRQRDAENRSQGNVLERRQRDAENKSQVGQLIGKNPLLSKSIISRENNHSSQGDSNKQSFSKKVSQVTNVANRPMLTNNSRTISVINKLPKTGDDQNV
modifications: left off: small tags and cut ends
notes: derivative of FbsA-19 fusion protein with only 9 repeats in its repeat domain
inhibition of binding of 125I-labelled fibrinogen to GBS 6313 (GBS 6313; increasing concentrations of purified fusion protein): significantly higher concentration of FbsA-9 had to be used to obtain a comparable inhibition
